In assay [1] the target is 3×HA-FKBP-SKP1 (human | Cyanidioschyzon merolae).
The target in assay [2] is 3×HA-FKBP-CUL1 (human | Cyanidioschyzon merolae).

For mVenus-FRB (domain or fragment), in assay [1], the half-life (t1/2) of mVenus-FRB in the mV^RD-SKP1 strain after the addition of 500 nM rapamycin (the bridging compound), immunoblot time course is 46 min. The half-life (t1/2) of mVenus-FRB in the mV^RD-CUL1 strain after the addition of 500 nM rapamycin (the bridging compound), immunoblot time course in assay [2] was determined as 30 min.

These data come from article PMC11376382.
